Where two headings read alike, the source gives them in different places.
How the values were obtained:
[1] = target: PKM2 (pyruvate kinase M2) (mouse (endogenous in cerebellar tissue)) (UniProt P52480); experiment: cross-linking; 5 mM disuccinimidyl suberate (DSS), 30 min, room temperature, quenched with Tris, then immunoblot for PKM2; mouse cerebellar tissue of Atm-WT and Atm-KO, also with TEPP-46
[2] = target: PKM2 (pyruvate kinase M2) (mouse (endogenous in cerebellar tissue)) (UniProt P52480); experiment: as above; remark: listed apart in the source
[3] = target: ATM (ataxia-telangiectasia mutated) kinase (mouse (endogenous in cerebellar tissue)) (UniProt Q62388); experiment: non-reducing SDS-PAGE and immunoblot; ex vivo mouse cerebellar tissue culture exposed to glargine (100 nM, 2 h); proteins denatured in 2% SDS without boiling, separated under nonreducing conditions at 4 °C; the NOX4 antagonist GLX7013114 or shRNA impeded the insulin-induced dimerization

Chain of PKM2 (pyruvate kinase M2), P52480 1-531 (enzyme; other documents disagree on this pair) (P52480 whole entry): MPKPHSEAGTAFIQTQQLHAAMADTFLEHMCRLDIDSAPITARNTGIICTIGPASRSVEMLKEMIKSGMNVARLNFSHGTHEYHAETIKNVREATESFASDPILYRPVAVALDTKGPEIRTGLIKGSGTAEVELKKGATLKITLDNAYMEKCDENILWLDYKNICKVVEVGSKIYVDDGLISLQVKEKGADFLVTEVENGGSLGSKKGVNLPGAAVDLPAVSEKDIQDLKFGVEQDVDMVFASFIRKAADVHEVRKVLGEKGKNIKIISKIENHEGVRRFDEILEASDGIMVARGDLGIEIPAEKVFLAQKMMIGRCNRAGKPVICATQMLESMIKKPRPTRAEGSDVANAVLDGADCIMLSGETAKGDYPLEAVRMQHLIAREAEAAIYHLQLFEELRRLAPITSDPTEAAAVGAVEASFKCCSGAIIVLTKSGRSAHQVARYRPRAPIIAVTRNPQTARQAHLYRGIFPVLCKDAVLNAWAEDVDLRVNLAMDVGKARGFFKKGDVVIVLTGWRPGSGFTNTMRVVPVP

| stoichiometry N [1] | stoichiometry N [2] | Substance | stoichiometry N [3] |
| --- | --- | --- | --- |
| 2 | 4 | PKM2 (pyruvate kinase M2), P52480 1-531 (enzyme; other documents disagree on this pair) |  |
|  |  | ATM (ataxia-telangiectasia mutated) kinase, Q62388 1-3066 | 2 |
